Article PMC7542365 (mBio, 2020)

Target: T1, A/Serbia/NS-601/2014 H1N1 NA, soluble tetramer with His tag attached (Influenza A virus A/Serbia/NS-601/2014 …, strain)
T1 chain: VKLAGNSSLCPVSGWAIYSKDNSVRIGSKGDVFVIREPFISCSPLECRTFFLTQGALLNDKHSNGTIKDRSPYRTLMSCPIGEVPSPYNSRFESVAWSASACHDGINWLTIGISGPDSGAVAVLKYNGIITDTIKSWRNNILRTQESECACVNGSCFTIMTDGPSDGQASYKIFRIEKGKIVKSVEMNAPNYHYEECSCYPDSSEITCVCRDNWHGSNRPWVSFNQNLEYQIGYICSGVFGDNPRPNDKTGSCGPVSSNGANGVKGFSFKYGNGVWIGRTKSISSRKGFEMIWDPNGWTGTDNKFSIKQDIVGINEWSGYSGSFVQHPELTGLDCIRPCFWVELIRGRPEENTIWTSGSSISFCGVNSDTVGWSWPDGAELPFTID
Assay: SPR
Settings: both partners purified

B1: Z2B3-D102R Fab (Fab, V domains shown)
VH: EVQLVQSGAEVKKPGSSVKVSCKASGGPFSSYGFSWVRQAPGQGLEWMGGIIPVYGTTNYAQKFQGRVTITADESTSTAYMELSSLKSEDTAVYYCARDLQRTPMVDRIIGSYYYYNGLDVWGQGTTVTVSS
VL: QSVLTQPASVSGSPGQSITISCTGASSDVGDYNYVSWYQQHPGKAPKLMIYDVSNRPSGVSNRFSGSKSGDTASLTISGLQAEDEADYYCSSYTRSSSVVFGGGTKLTVL
B1 showed a Kd of 0.401 µM.
